Here are results for 1 protein from publication PMC2217671.

Substrate in the data set: NCCC[C@H](N)C(=O)O
Kind of data set: purified protein. The following applies: 200 uM PLP, 12.5 mM DTT, 250 mM Tris pH 7.5, 37 °C, 0.002% BRIJ-35 added, enzyme unstable, low activity.

B1: recombinant E. histolytica putative ornithine decarboxylase (ODC)-like protein (Entamoeba histolytica) (protein)
chain: MKQTSLEVKEFALNLISQFEPENQPLGFWIFDTEGVEKAVERWKKNMPTVRPCFAVKCNPEPHLVKLLGELGCGFDCASLNEIKEVLDLGFNPEDITYSQTFKPYNQLIEASHLGINHTIVDSIDEVQKIAKYAPKMGIMIRIMENDTSAGHVFGEKFGLHDDEVEIVLKEIKDKGLNLDGVHFHVGSDSHNSEVFTKALTKARNTVTLAEQFGMKPYLIDIGGGFSQVAPFEEFAATIEKTIKELEFPERTRFIAEPGRYMASNAFHLVSSLHGKRVRIQNGKKQIEYTSGDGLHGSFGCCIWFEKQKSCECITQKVNENTKMYESIIYGPSCNGSDKVATQELPEMEPGKDWLLFPNMGAYTISMATNFNGFEERNHVIYTLPLKSTKIIQIPKSIECNSVPSLNGIPHYA
A word on the Km: it is the concentration of substrate that gives half-maximal velocity. Take B1: the Michaelis constant (Km) worked out at 1500 µM.
